According to paper PMC10865538 (BMC Infectious Diseases, 2024):

Molecular target: T1, recombinant wild-type RBD-Fc (Sino Biological, 40,592-V02H) (SARS-CoV-2, UniProt P0DTC2)
T1 construct: also called Fc-tagged SARS-CoV-2 RBD; source: bought: Sino Biological
Experiment: BLI
Conditions: both partners purified

B1: sdAb39 (VHH)
VHH: EVQLVESGGGLVQPGGSLRLSCAASGNTSTRHPMSWVRQAPGKGLELVASIGRGEITYYADSVKGRFTISRDNSKNTLYLQMNSLRAEDTAVYYCAAFVDFLSRHNSRRPYPHGYWGQGTLVTVSS
**Q.** With B1 as the binder, how does the Kd read?
**A.** The Kd was 56 nM.
